B1: SEQ ID NO 20 (peptide)
peptide: PWYCSGDHLDWKCIYQ
modifications: disulfide 4-13 (inferred)
notes: cyclic, disulfide
B2: SEQ ID NO 27 (peptide)
peptide: SWHCFGDNENWMCNLR
modifications: disulfide 4-13 (inferred)
notes: cyclic, disulfide
B3: SEQ ID NO 43 (peptide)
peptide: PWQCYSDKTSWVCNLY
modifications: disulfide 4-13 (inferred)
notes: cyclic, disulfide
B4: SEQ ID NO 11 (peptide)
peptide: PLVCHPPYSGSCSLH
modifications: disulfide 4-12 (inferred)
notes: cyclic, disulfide
B5: SEQ ID NO 24 (peptide)
peptide: EWLCVGDSLKWYCKHS
modifications: disulfide 4-13 (inferred)
notes: cyclic, disulfide
B6: SEQ ID NO 30 (peptide)
peptide: GWDCQGTDNIWECVRK
modifications: disulfide 4-13 (inferred)
notes: cyclic, disulfide
B7: SEQ ID NO 42 (peptide)
peptide: TWRCDQFKGKWVCRGG
modifications: disulfide 4-13 (inferred)
notes: cyclic, disulfide
B8: SEQ ID NO 10 (peptide)
peptide: LTVCHPPYYGRCNFV
modifications: disulfide 4-12 (inferred)
notes: cyclic, disulfide
B9: SEQ ID NO 46 (peptide)
peptide: GWVCLQKGPKWVCDWD
modifications: disulfide 4-13 (inferred)
notes: cyclic, disulfide
B10: SEQ ID NO 52 (peptide)
peptide: RWSCWLDENGWKCDGT
modifications: disulfide 4-13 (inferred)
notes: cyclic, disulfide
B11: SEQ ID NO 23 (peptide)
peptide: AWDCSGNIPTWYCRRL
modifications: disulfide 4-13 (inferred)
notes: cyclic, disulfide
B12: SEQ ID NO 40 (peptide)
peptide: EWRCRGDSSSWLCDYT
modifications: disulfide 4-13 (inferred)
notes: cyclic, disulfide
B13: SEQ ID NO 49 (peptide)
peptide: AWFCSQKNRLWSCGET
modifications: disulfide 4-13 (inferred)
notes: cyclic, disulfide
B14: SEQ ID NO 45 (peptide)
peptide: EWQCTQYANQWNCKYN
modifications: disulfide 4-13 (inferred)
notes: cyclic, disulfide
B15: SEQ ID NO 28 (peptide)
peptide: SWICTGDNIDWNCRFA
modifications: disulfide 4-13 (inferred)
notes: cyclic, disulfide
B16: SEQ ID NO 32 (peptide)
peptide: NWVCSGDHADWSCALI
modifications: disulfide 4-13 (inferred)
notes: cyclic, disulfide
B17: SEQ ID NO 29 (peptide)
peptide: DWICHGDFDTWKCDLQ
modifications: disulfide 4-13 (inferred)
notes: cyclic, disulfide
B18: SEQ ID NO 25 (peptide)
peptide: IWLCTGGAATWNCKFD
modifications: disulfide 4-13 (inferred)
notes: cyclic, disulfide
B19: SEQ ID NO 48 (peptide)
peptide: AWSCWIVEGRWNCSDI
modifications: disulfide 4-13 (inferred)
notes: cyclic, disulfide
B20: SEQ ID NO 12 (peptide)
peptide: PMICHAPYVGKCNFL
modifications: disulfide 4-12 (inferred)
notes: cyclic, disulfide
B21: SEQ ID NO 31 (peptide)
peptide: GWVCGGDHTTWECHLQ
modifications: disulfide 4-13 (inferred)
notes: cyclic, disulfide
B22: SEQ ID NO 26 (peptide)
peptide: WRCDGDAHDWHCDWF
modifications: disulfide 3-12 (inferred)
notes: cyclic, disulfide
B23: SEQ ID NO 21 (peptide)
peptide: DWTCVGDHKTWKCNFH
modifications: disulfide 4-13 (inferred)
notes: cyclic, disulfide
B24: SEQ ID NO 22 (peptide)
peptide: DWECHGNEFEWNCLMR
modifications: disulfide 4-13 (inferred)
notes: cyclic, disulfide
B25: SEQ ID NO 18 (peptide)
peptide: DWTCSGDEYTWYCNYE
modifications: disulfide 4-13 (inferred)
notes: cyclic, disulfide
B26: SEQ ID NO 142 (peptide)
peptide: GQWTCSADEYTWHCNYE
modifications: disulfide 5-14 (inferred)
notes: cyclic, disulfide
B27: SEQ ID NO 169 (peptide)
peptide: QWTCSG[dD]EYTWHCNYE
modifications: disulfide 4-13 (inferred); not fully specified (N-terminus); printed as QWTCSGdEYTWHCNYE
notes: cyclic, disulfide
B28: SEQ ID NO 19 (peptide)
peptide: DWTCSGDEYRWHCNYE
modifications: disulfide 4-13 (inferred)
notes: cyclic, disulfide
B29: SEQ ID NO 171 (peptide)
peptide: QWTCSGDE[dY]TWHCNYE
modifications: disulfide 4-13 (inferred); not fully specified (N-terminus); printed as QWTCSGDEyTWHCNYE
notes: cyclic, disulfide
B30: SEQ ID NO 35 (peptide)
peptide: YWVCGGDHQSWHCSHP
modifications: disulfide 4-13 (inferred)
notes: cyclic, disulfide
B31: SEQ ID NO 44 (peptide)
peptide: GWNCYEYDSQWICDHL
modifications: disulfide 4-13 (inferred)
notes: cyclic, disulfide
B32: SEQ ID NO 50 (peptide)
peptide: KWFCELMQDQWQCGSK
modifications: disulfide 4-13 (inferred)
notes: cyclic, disulfide
B33: SEQ ID NO 51 (peptide)
peptide: KWFCELMHDQWQCGSK
modifications: disulfide 4-13 (inferred)
notes: cyclic, disulfide
B34: SEQ ID NO 34 (peptide)
peptide: MWDCTGNSAEWRCEMQ
modifications: disulfide 4-13 (inferred)
notes: cyclic, disulfide
B35: SEQ ID NO 47 (peptide)
peptide: PWTCRMTENTWVCDLN
modifications: disulfide 4-13 (inferred)
notes: cyclic, disulfide
B36: SEQ ID NO 41 (peptide)
peptide: VWACRGGTTNWHCDL
modifications: disulfide 4-13 (inferred)
notes: cyclic, disulfide
B37: SEQ ID NO 33 (peptide)
peptide: AWTCVGGEKTWGCVWN
modifications: disulfide 4-13 (inferred)
notes: cyclic, disulfide

Bridge positions count the residues as written; N and C are the ends. Square brackets hold non-standard residues; d marks the D form. Ends that are not written are not given here.

The target of the assay is T1, human collagen type I, acid soluble, extracted from placenta (Sigma C7774) (human, UniProt P02452 162-1218; P08123 80-1119).
T1 construct: tissue extract, gelled and dried in wells; also called dried human collagen; h-Collagen
T1 sequence (P02452 162-1218 limits assumed, chain 1 of 2): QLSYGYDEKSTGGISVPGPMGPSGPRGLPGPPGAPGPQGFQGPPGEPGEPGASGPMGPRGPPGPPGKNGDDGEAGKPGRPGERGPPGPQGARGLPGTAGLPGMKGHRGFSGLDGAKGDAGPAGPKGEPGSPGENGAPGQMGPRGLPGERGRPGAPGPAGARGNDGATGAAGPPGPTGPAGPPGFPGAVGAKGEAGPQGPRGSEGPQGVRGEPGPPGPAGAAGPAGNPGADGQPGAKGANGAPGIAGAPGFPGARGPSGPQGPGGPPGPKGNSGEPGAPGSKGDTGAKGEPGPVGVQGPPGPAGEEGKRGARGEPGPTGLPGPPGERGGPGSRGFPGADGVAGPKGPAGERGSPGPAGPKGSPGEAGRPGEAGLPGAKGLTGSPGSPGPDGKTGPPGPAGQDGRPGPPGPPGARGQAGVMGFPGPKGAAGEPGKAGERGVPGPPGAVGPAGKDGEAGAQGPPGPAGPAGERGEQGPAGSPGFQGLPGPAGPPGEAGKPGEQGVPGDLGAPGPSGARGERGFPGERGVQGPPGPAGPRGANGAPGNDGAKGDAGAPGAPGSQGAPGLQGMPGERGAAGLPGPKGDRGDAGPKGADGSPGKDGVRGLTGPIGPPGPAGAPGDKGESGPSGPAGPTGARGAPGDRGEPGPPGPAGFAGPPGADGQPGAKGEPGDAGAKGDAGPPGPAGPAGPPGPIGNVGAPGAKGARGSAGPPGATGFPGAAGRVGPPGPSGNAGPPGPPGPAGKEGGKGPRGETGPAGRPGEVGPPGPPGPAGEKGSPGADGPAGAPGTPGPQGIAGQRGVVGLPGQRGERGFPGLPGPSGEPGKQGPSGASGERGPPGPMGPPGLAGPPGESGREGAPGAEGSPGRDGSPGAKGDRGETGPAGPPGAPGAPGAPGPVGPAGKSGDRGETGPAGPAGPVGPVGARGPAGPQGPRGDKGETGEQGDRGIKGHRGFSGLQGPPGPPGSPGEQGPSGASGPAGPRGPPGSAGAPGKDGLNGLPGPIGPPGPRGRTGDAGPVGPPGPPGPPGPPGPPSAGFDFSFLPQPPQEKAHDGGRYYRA
T1 sequence (P08123 80-1119 limits assumed, chain 2 of 2): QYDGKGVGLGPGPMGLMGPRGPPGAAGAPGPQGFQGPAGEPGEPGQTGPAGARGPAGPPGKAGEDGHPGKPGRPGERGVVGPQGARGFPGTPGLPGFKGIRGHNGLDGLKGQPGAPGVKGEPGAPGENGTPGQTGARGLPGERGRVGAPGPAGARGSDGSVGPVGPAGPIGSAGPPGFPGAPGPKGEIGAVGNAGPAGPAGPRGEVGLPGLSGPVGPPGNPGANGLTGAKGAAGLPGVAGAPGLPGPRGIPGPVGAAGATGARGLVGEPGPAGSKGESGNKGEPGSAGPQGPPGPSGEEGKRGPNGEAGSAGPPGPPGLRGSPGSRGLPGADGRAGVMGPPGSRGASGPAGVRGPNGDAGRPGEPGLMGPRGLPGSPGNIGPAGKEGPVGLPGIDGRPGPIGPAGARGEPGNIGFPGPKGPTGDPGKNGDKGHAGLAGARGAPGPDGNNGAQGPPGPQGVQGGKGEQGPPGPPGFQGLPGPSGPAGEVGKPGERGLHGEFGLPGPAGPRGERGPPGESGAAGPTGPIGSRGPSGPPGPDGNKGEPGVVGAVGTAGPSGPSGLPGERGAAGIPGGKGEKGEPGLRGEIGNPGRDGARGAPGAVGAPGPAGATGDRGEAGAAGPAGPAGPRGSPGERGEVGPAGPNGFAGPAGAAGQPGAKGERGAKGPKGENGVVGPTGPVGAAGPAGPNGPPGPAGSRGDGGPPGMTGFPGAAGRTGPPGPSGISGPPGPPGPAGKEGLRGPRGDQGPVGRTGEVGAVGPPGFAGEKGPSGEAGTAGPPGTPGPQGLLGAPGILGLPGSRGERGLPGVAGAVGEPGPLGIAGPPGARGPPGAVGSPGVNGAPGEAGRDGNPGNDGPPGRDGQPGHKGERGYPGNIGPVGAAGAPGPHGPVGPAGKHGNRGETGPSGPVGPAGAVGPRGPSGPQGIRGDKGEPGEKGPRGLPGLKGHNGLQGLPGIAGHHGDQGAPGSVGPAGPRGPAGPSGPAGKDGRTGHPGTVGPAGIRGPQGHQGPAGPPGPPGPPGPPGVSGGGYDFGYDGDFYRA
The assay can be described thus: dried collagen assay. As to the method: An additional 90 μL is reserved in a HPLC glass vial as a measure of the total concentration.
Turning to B1, the “% bound” value stood at 64%.
In the case of B2, the “% bound” value was 24%.
Consider B3, for which the “% bound” value was 30%.
With B4, the “% bound” value was 9%.
To B5 belongs 43%.
For the molecule B6, the “% bound” value amounted to 16%.
For the molecule B7, the “% bound” value was 40%.
On to B8, for which the “% bound” value stood at 9%.
For B9, the “% bound” value is 23%.
For the molecule B10, the “% bound” value was 15%.
Consider B11, for which the “% bound” value was determined as 44%.
With B12, the “% bound” value came to 3%.
In the case of B13, the “% bound” value was determined as 19%.
As to B14, the “% bound” value was determined as 25%.
As for B15, the “% bound” value worked out at 20%.
With B16 the figure was 12%.
To B17 belongs 16%; to B18, 39%.
As for B19, the “% bound” value was found to be 22%.
To B20 belongs 7%; to B21, 15%.
To B22 belongs 25%.
On to B23, for which the “% bound” value is 57%.
To B24 belongs 55%.
As to B25, the “% bound” value was 78%.
With B26, the “% bound” value came out at 9%.
Take B27: the “% bound” value was 11%.
To B28 belongs 70%; to B29, 13%.
B30: the “% bound” value was 8%.
In the case of B31, the “% bound” value was found to be 28%.
Take B32: the “% bound” value worked out at 18%.
As for B33, the “% bound” value stood at 18%.
Turning to B34, the “% bound” value was 11%.
With B35 the figure was 22%.
For the molecule B36, the “% bound” value is 1%.
On to B37, for which the “% bound” value turned out to be 12%.
